Entries after “also recorded” stand apart in the source; their conditions may differ. Residues, ends and D or L forms follow the SMILES beside them. No end group written: not given here.
Legend:
Format in all cases: biochemical
DNA-PK [1] = target: T1, DNA-PK (Homo sapiens, UniProt P78527); experiment: Conditions that result in 50% inhibition of DNA-PK activity; settings: for 50% Inhibition / IC50: inhibition of DNA-PK activity in vitro
T1 construct: DNA-PK was purified from HeLa cells; endogenous in cells; host or cells: HeLa S3 cells; the endogenous enzyme was purified in house by chromatography
Protocol: Experiments were performed to determine optimal DNA-PK assay conditions. It was determined that DNA-PK is active over a broad pH range and the most common buffers with the exception of phosphate buffers. A summary of assay conditions that optimize DNA-PK activity in vitro is found in Table 4 along with a summary of conditions that result in 50% inhibition of DNA-PK activity.
The methods used to obtain results in the second section (Inhibitor section) of Table 4 are illustrative of methods that are applicable to identifying substances that alter the activity of DNA-PK.

DNA-PK [2] = target: T1, DNA-PK; experiment: Phosphorylation of synthetic peptides by purified DNA-PK (phosphocellulose paper binding method); settings: for PO4 incorp.: each peptide at 200 μM, calf thymus DNA 10 μg/ml, 30° C.
Protocol: Phenylmethylsulfonyl fluoride was added to the S10 (10,000×g) supernatant as a powder to 0.5 mM. DNA-PK activity was found in the 100,000×g (ribosomal) pellet. DNA-PK preparations typically were made from 200 ml of S10 supernatant that had been derived from approximately 10^10 cells. All steps were performed at 4° C. unless indicated otherwise.
Phosphorylation reactions were performed in a 20- or 40-μl final volume as previously described by Chen, et al., J. Virol., 10:5131-5140 (1991) and Lees-Miller, et al., Mol. Cell. […] In particular, in addition to synthetic peptide substrates or protein substrates, the assays contained 50 mM HEPES (pH 7.5), 100 mM KCl, 10 mM MgCl2, 2 mM EGTA, 0.1 mM EDTA and 0.125 mM ATP containing [^32P]ATP at 0.2 mCi/ml. […] Assays were started by adding 1 μl of kinase sample. Incubations were at 30° C. for 7 min.
For determinations of kinetic constants, the ATP concentration was 0.5 mM. When present, hsp90 was included at 0.5 mg/ml. Assay mixtures were preincubated at 30° C. for 2 min before addition of 0.1 to 0.5 μg (protein) of the DNA-PK preparation.
In particular, kinase reactions were stopped by adding an equal volume of 30% acetic acid, and portions of the acidified reaction were spotted on 2- by 2-cm squares of P-81 paper (Whatman, Inc., Clifton, N.J.). […] The P-81 squares were then transferred to scintillation vials containing 3.5 ml of water, and bound radioactivity was determined from the Cerenkov radiation. Enzyme activity was calculated from triplicate determinations, using the specific activity of the ATP and the protein concentration, which was determined by the Bio-Rad dye-binding assay (Bio-Rad (Bradford) Protein Assay Kit 1, Cat. No. 500-001, Bio-Rad Laboratories, Hercules, Calif.), using bovine serum albumin as the standard. […] The kinetic constants, Km and Vmax for each peptide sequence were calculated from plots of 1/[S] versus 1/V, the values reported are averages of at least two independent determinations.

DNA-PK [3] = target: T1, DNA-PK; experiment: Poorer substrate peptides added to (SEQ ID NO: 8) phosphorylation assays; settings: peptide up to 250 μM; (SEQ ID NO: 8) at 100 μM
DNA-PK [4] = target: T1, DNA-PK; experiment: Identification of phosphorylated residues (sequence analysis, S-ethylcysteine conversion); settings: p53 residue numbering
Protocol: To determine which of these were phosphorylated, after incubation with DNA-PK, radiochemical sequence analysis was performed by using a Beckman 890M spinning-cup sequencer (Beckman Instruments, Palo Alto, Calif.) as described by Lees-Miller, et al., J. Biol. Chem., 264:17275-17280 (1989). The peptide was isolated by reverse-phase HPLC, peptidylphosphoserine was converted to S-ethylcysteine, and the position of phenylthiohydantoin (PTH)-S-ethylcysteine was determined by chemical microsequence analysis using an Automated Protein/Peptide sequencer (Applied Biosystems, Foster City, Calif.) and a 120 PTH-Amino Acid Analyzer (Applied Biosystems, Foster City, Calif.) as described by Lees-Miller, et al., J. Biol. Chem., 264:17275-17280 (1989).
A peptide corresponding to mouse p53 residues Met^4-Pro^31, (SEQ ID NO: 2), was also examined (See Table 1). Serine 7 of mouse p53 is at the position equivalent to proline 4 of human p53, and the glutamine at position 8 of mouse p53 is conserved among mammals as reported by Soussi, et al., Oncogene, 5:945-952 (1990). After phosphorylation of (SEQ ID NO: 2) the peptide was digested with endoproteinase Glu-C, and the resulting fragments were separated by reverse-phase HPLC. […] Each peptide was treated to convert phosphoserine to S-ethylcysteine; then they were resequenced.

DNA-PK [5] = target: T1, DNA-PK; experiment: Phosphorylation of recombinant protein substrates by purified DNA-PK (SDS-PAGE, phosphorimage); settings: 5 μg/ml calf thymus DNA compared to no addition of DNA; 30 minutes at 30° C.
Protocol: The recombinant protein substrates, a total of six, (at approximately 0.1 mg/ml final concentration) were separately mixed with hsp90 in a phosphorylation reaction with purified DNA-PK (0.6 pg, 0.02 units/assay) without (−) or with (+) 5 μg/ml calf thymus DNA, in the presence of ^32P-ATP for 30 minutes at 30° C. as described by Lees-Miller, et al., Mol. Cell. Biol., 12:5041-5049 (1992). The phosphorylation reactions were stopped with SDS sample buffer and analyzed with SDS-PAGE. The gel was fixed, stained with Coomassie brilliant blue, dried and developed by autoradiographic procedures. The results of which can be seen in FIG. 9.

| Compound | substrate activity for DNA-PK (in words) (DNA-PK [2]) | PO4 incorp. (DNA-PK [2]) | inhibition of phosphorylation of (SEQ ID NO: 8) (DNA-PK [3]) | other results |
| --- | --- | --- | --- | --- |
| OCC(O)CO [Glycerol] |  |  |  | effect on DNA-PK activity (in words) (DNA-PK [1]): inhibited; 50% Inhibition (DNA-PK [1]): 25 % v/v |
| O=P(O)(O)OP(=O)(O)O [Pyrophosphate] |  |  |  | effect on DNA-PK activity (in words) (DNA-PK [1]): inhibited; IC50 (DNA-PK [1]): 3 mM |
| CSCC[C@H](NC(=O)[C@H](C)NC(=O)[C@H](CCC(N)=O)NC(=O)[C@H](CO)NC(=O)[C@@H]1CCCN1C(=O)[C@H](CC(C)C)NC(=O)[C@@H]1CCCN1C(=O)[C@H](CO)NC(=O)[C@H](CC(C)C)NC(=O)[C@@H](NC(=O)[C@H](CC(N)=O)NC(=O)[C@@H](N)CC(N)=O)C(C)C)C(=O)N[C@@H](CC(=O)O)C(=O)N[C@@H](CC(=O)O)C(=O)N[C@@H](CC(C)C)C(=O)N[C@@H](CCSC)C(=O)N[C@@H](CCCCN)C(=O)N[C@@H](CCCCN)C(=O)O [SEQ ID NO: 6] |  |  |  | Km relative to (SEQ ID NO: 4) (DNA-PK [2]): twice as high |
| CC(C)C[C@H](NC(=O)[C@H](CC(=O)O)NC(=O)[C@H](C)NC(=O)[C@H](Cc1ccccc1)NC(=O)[C@H](C)NC(=O)[C@H](CCC(=O)O)NC(=O)[C@H](CCC(N)=O)NC(=O)[C@H](CO)NC(=O)[C@H](CC(C)C)NC(=O)[C@@H]1CCCN1C(=O)[C@@H]1CCCN1C(=O)[C@@H](N)CCC(=O)O)C(=O)N[C@@H](Cc1c[nH]c2ccccc12)C(=O)N[C@@H](CCCCN)C(=O)N[C@@H](CCCCN)C(=O)O [SEQ ID NO: 11] (H-EPPLSQEAFADLWKK-OH) |  |  |  | Km relative to (SEQ ID NO: 8) (DNA-PK [2]): twofold increase |
| EPPDSQEAFADLWKK [SEQ ID NO: 17] | less effective substrate for DNA-PK than peptides (SEQ ID NOS: 15 AND 16) | 48 pmol/min/μg of DNA-PK |  |  |
| EPPLAQETFSDLWKK [SEQ ID NO: 22] | not phosphorylated efficiently by DNA-PK |  |  |  |
| EPPLSEEAFADLWKK [SEQ ID NO: 32] | effectively eliminated the ability of the sequence to act as a DNA-PK substrate | 0.4 pmol/min/μg of DNA-PK | None of these peptides significantly inhibited the phosphorylation |  |
| EPPLSNEAFADLWKK [SEQ ID NO: 33] | eliminated the ability of the sequence to act as a DNA-PK substrate | 0.1 pmol/min/μg of DNA-PK | None of these peptides significantly inhibited the phosphorylation |  |
| EPPLSQETFKK [SEQ ID NO: 9] |  | 15 pmol/min/μg of DNA-PK | None of these peptides significantly inhibited the phosphorylation | rate of phosphorylation relative to control (SEQ ID NO: 8) (DNA-PK [2]): approximately 10% |
| EPPLSYEAFADLLKK [SEQ ID NO: 34] |  | 2.3 pmol/min/μg of DNA-PK |  |  |
| Glu Pro Pro Leu Ser Gln Glu Thr Phe Ser Asp—Lys Lys (EPPLSQETFSDKK; Human p53 residues 11-21; listed as Homo sapiens) [SEQ ID NO: 10] |  | 12 pmol/min/μg of DNA-PK | None of these peptides significantly inhibited the phosphorylation | rate of phosphorylation relative to control (SEQ ID NO: 8) (DNA-PK [2]): approximately 10% |
| Heparin [reference compound] |  |  |  | effect on DNA-PK activity (in words) (DNA-PK [1]): inhibited; 50% Inhibition (DNA-PK [1]): 1 µg/mL |
| His Lys Lys Leu Met Phe Lys Thr Glu Gly Pro Asp Ser Asp (HKKLMFKTEGPDSD; Human p53 residues 380-393; listed as Homo sapiens) [SEQ ID NO: 31] | phosphorylated at a negligible rate; also recorded: not substrates for DNA-PK | 0 pmol/min/μg of DNA-PK | None of these peptides significantly inhibited the phosphorylation |  |
| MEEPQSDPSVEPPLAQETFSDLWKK [SEQ ID NO: 5] | ineffective substrate for DNA-PK | 5.3 pmol/min/μg of DNA-PK | None of these peptides significantly inhibited the phosphorylation | rate of phosphorylation relative to (SEQ ID NO: 4) (DNA-PK [2]; at 200 μM): about 10% |
| MEESQSDISLELPLSQETFSGLWKLLPP [SEQ ID NO: 2] |  |  |  | site phosphorylated by DNA-PK (DNA-PK [4]): Ser^7 and Ser^18 |
| PESEQAFADLWKK [SEQ ID NO: 23] | not phosphorylated by DNA-PK |  |  |  |
| Phosphate |  |  |  | effect on DNA-PK activity (in words) (DNA-PK [1]): inhibited; IC50 (DNA-PK [1]): 10 mM |
| Ser Lys Lys Gly Gln Ser Thr Ser Arg His Lys Lys Leu Met Phe (SKKGQSTSRHKKLMF; Human p53 residues 371-385; listed as Homo sapiens) [SEQ ID NO: 30] | phosphorylated at a negligible rate | 0 pmol/min/μg of DNA-PK |  |  |
| hsp90: human heat shock protein hsp90, a known DNA-PK substrate [reference compound] |  |  |  | increase in phosphate incorporation by addition of double stranded DNA (DNA-PK [5]): 20 fold |
